From the DeepSol protein solubility set come the findings set out here.

A short description of this series: soluble on expression in E. coli; label from the status in PepcDB or PDB records.
Regarding “NSRVSDLDLELLFQDRAARLGKSISRLIVVASLIDKPTNLGGLCRTCEVFGASVLVVGSLQCISDKQFQHLSVSAEQWLPLVEVKPPQLIDYLQQKKTEGYTIIGVEQTAKSLDLTQYCFPEKSLLLLGNEREGIPANLIQQLDVCVEIPQQGIIRSLNVHVSGALLIWEYTRQQLLSHGDTKP”, the “soluble on expression in E. coli” value is “soluble”.
Next, “MGSDKIHHHHHHMMKLTALVDNTRLDSRPELAVERGLSFHVETMGSQILFDTGSSSTFCENAALMNISIQDVDLAVISHRHHDHCNGTTHFIERNSKAKIYLKDCEDKNYLFKAFGFKNDVGINKELLKNASERLIFVEHTTEILPNIFIITEISDKYEKPKGNRYLYTQSENGYKNDTFDHELLLVVKESDGLIVFTGCAHSGVLNMVETAIELFPNHRIKAVVGGFHLVGLPLLNSIGGTKQDIQAIGQALSHYPIDKLYTGHCTGMKAFGLLKEVLGDRLEHLPTGRSVLI”: “not soluble”; “EQGREPSWGFTEKSRTRDIPETLVPLITVTPSTELYRITGWGALEGHKVFYHETYINPEVAPGFIEQLENHSFSAVWEKCYQKETVVKKLIFKPVRMPGDISKYLGGSAGMPAILIEKHRADQQGNIVQIDIEYWRFEAVDLIINL”: “not soluble”; “GPGSMHFPSIVFRRHGGRQWMQQQSRDPFVLEARRRGYVARSAFKLLEMDDKFTLFSRGNTRVVVDIGCSPGSWLQVIRERCGDKCAVFGVDVLRVASTVTGAVCIQGDFTNPAVREELLARMVTVRAAGVVDVVTSDMCLNRGTGSTSDRQKQEELNRSALAFALEQLVPGGNFVCKVLGSPTAYEELRRDTCRWFVRTDICKPSSSRLTSDEAFMVCRGKREIPRDRSGGCDGTYGGRFGLDDWPGQLRGSPRRRKP”: “not soluble”.
For the sequence “GPGSMSTSEGNAANRFAGRVKQAEDPFVKALRIKVNGLKRNMKDLEFAKKEVVCETARLESIRDTNPDRVKQQENVIAEAQMMIPHSENRVRAAIKDLQDFLDTHENDAEEGELMQDARTTLESAQLTLSKQ”, the “soluble on expression in E. coli” value was “soluble”.
Next, “MMWKQAMTDVAEKTLTNIKRFNGRFPHVSEDGEHYELNNNNEWTNGFWSGILWLCYEYTNDPAFRQAAASTVRSFQQRMEQNLELDHHDIGFLYSLSSKAQWIIERDERAKQLTIEAADVLMKRWREKIELFQAWGPEGDLSNGGRIIVDCLMNLPLLFWASEVTGNPDYREAAIIHADKTRRFIVRGDDSTYHTFYFNQETGEALRGGTHQGYEDGSTWSRGQAWAIYGFAIAYRYTGNERYLETAKRTAKYFIENLPADYVAYWDFNAPITPDTKRDSSASAIASCGILELLSHLQETDPDKAFFQQSVQKQMTSLVENYASEKDAQGLIKRGSYSVRIGHAPDDYVIWGDYFYTEALMRLEKLRNGYWYEGKLEHHHHHH”: “soluble”.
The same measure for “MRTIKLIIAYDGTAYAGFQRQPNGITIQQRLEEALRAVTGEPDLRIGAAAGRTDAGVHARGQVVHLRTYATIPIDRWPAALNGHLPDDIAVIGAEEAPPDFHARYWAREKRYRYTFCLSPYRLPMARLYSYHWHRPVDVDAMRRAAALLVGRHDFAAFRATGGSARTTVRTITRLTLTEEPPFLHLDVTADGFLYNMVRIIAGTLLEVGAGRRSLDRVAQALRHGRREDAGRTLPPHGLCLEEVVYGDGPSIPPWAAEAAPDVDLEP”: “soluble”; for “MRVMAKIELLAKFTQIALPNSHPLLKKVLNYAKKHFSQCHMLSSSLLILNDTECFKKNYLLNWVYHALECVHEKDISAHSLEEVLQKSHLPIRIKIMAQNTLLEKIEVKVLTFGAEYALFITKHPIAKRFLRQKFSGCVFLETQDELHIRGDSERFWELIVTLNENRIVHNACLDFIYPNGFGKDSYTTMAERKLKECYKTLGFIKHEDFSEVKKRYLELAKTYHPDLCDLKEKKALYAKRFAIIQEAYRHIKKHALEHHHHHH”: “soluble”.
With “SHPALTQLRALRYSKEIPALDPQLLDWLLLEDSMTKRFEQQGKTVSVTMIREGFVEQNEIPEELPLLPKESRYWLREILLSADGEPWLAARTVVPVSTLSGPELALQKLGKTPLGRYLFTSSTLTRDFIEIGRDAGLWGRRSRLRLSGKPLLLTELFLPASPLY”, the “soluble on expression in E. coli” value is on record as “soluble”.
The same measure for “MRLIAAGEAQNAQQADEDVVQRNIQANRGTNIVRFTAMNDVAGFKQNSARGDQNEDRADRQMQGRQLQEDISNHTNQHHHNTRHQHTAKERHIFAGGQHIRRAAEEHQRRSAQCHSDYVTHSSRQVGVQNWSEDISQKTGKGECGDNPGRLIRRFVGQEHQTIHTHQRQNQTRRWQHQHRTGSCGNRRKGQRQAQQKIGITQHLMGAKQRCTVM”: “soluble”; for “MAHHHHHHMEVREGEPPQSWTYKAVCMTLEKDDGVEQSGAPRLRLMVLTSEKGWPYSWRWKENKSTRDCHVNCEVDRVWRTVKGDLTKWFSRRAKNKLSPRRRLLVGTPWIGNSMAADSYLLYQLLHGDAEKLQVAVYSFGSQSFLFDKTTQAVREYVDTTKSKRVFFFWQL”: “soluble”.
For “MMEIKRVLKDRLSARVCVIGAGPSGIAAIKNLQEHGITNVTVFEKNNQIGGNWVYDEQNEHSSVYETTHIISSKRWSEFEDFPMPVDYPDYPSHSQLLKYFQSYVEHFHLDRYIRFNTVVQKVHRLDDNTWHVIYEDAQGIHEACYDYLLVANGHHWDPFMPVYPGVFDGEILHSHQYKKASIFKGKRVLVVGGGNSACDVAVEISRVAPGTCISMRRGYHIFPKFIFGKPTDVAVAKIQWMPSWLRQKFISLVIRGLQGRYAKYKLMKPDCGPLEIHPTINSELLYFIRHGKIHPRSGISRFEGNTVHFTDRTQGEFDTIIFATGYQISFPFFDKSCIDFSNSTTIPLYRKMMHPEFENLYFIGLCQPQGCIWPLADYQSKIVARIIAGTLKRPDQLHRKIAKEINKPHHRFKSHMRHALEVDYHIFRKELLEMLGQKHKRLKFYPLEHHHHHH”, the “soluble on expression in E. coli” value is listed as “soluble”.
Next, “MSLYLITNRKLCSEERYLEVIKESILSGVENIIIREKDLEYQELRKLYMKIKTKINCIDFQEQISDESLKTNINQKECRNKFKVNFIINSNIEFFEKVDCQGIHLPFKLFLNLIENKYNFNENKILGLSLHKVEEVDYLEKLIRNQNIKIDYITLSHIYETKCKEGLNPKGIELLKEAKKITDIKIIALGGILPSNVKETLKYCDDFAIMSTIMRSKDIKKTISNYNEKLNEGHHHHHH”: “not soluble”.
Take “MGSDKIHHHHHHMAVITISREMGTGAYQIAREVAKRLKHTLVDGNKIAELAPRYGLDKELLKRVDEKPPVYITAEDRMHAAHLNTIEIIILDCVKQGNVILYGRGAQDLLSDVENILRIRFIAPFEHRVENFSEREWIDPDLARELIRKSDHQRGGFIHFYFNRDWNDSLGYDLTFNTERMSQSAIIESIIAAAKDSRLKEGEERLKQVIDETILAKKVETAFLKSGDIEYIHFRISVSGKVVSFSGHVHSEAEKREAIRLATAVEGVERVEGDLQVLNYKSHKG”: the “soluble on expression in E. coli” value is “not soluble”.
Next, “MAANEGNQPIPPEEEKEISSLLESIKIGKTSLKYRCFYLYDDKMTDLTEEQKETLKKLKLYQKEYYDYESKFEYELFLLRQKYHDLYGPIYDKRREALVGNGEAKIGTPNLPEFWLRALRNNNTVSHVIEDHDEEILVYLNDIRCDYIKKNKEKKEGFILSFYFATNPFFSNSVLTKTYHMKCVDCDNEPVLLHTEATVIDWYDNKNILKKNVVKKQHNKNSREVKTVQQTVNRDSFFHFFTSHKVPNSNVIKQLSKHEVAQLEMIIEGDYEVALTIKERIIPYAVDYYLGIIIESESNSIVSDVDSSYSSSENNSNYNSYESNNSAYNDENSNVDTNEYDDNEEEEEGAKSNEDPLTS”: “soluble”; “MGSDKIHHHHHHMALSLRACILLLKEHHLLKSAAIQNTEDVDMTGIAYDSRKVSGPTLFFCKGDKFRPIYLSMAKDNGARTYVAEKPYVEGNGLNALIVRNITKAMAILSAAFFDYPQDDLFVIAYTGTKGKTTASYFTEAILNEARPRHIALFSTIDTVVGPEPDQRFKSNLTTPESLDLFRDMREAVENGMTHLVMEVSSQAYLRNRVFGLTYDVGFFLNITPDHIGPNEHPTFANYLHNKLQLLVNARKVVINAETEHFDQVYAAATTTTYPESIYLFASAGFRPKRDDIDIDFRFDSQEADVAESRFTLVPVTEKAAALNIGGHYSLALIGDFNESNATAAIIGAGLAGVDASAAVPGIAKVKIPGRMEHTKVAGHGAVYVDYAHNYASMKALLSFLKHAYKDPRLLVVVGSPGDKGVSRRPGFAKVLTEFATEAFLTTDDPGYEDPANIIEEIDSKIDHSKVKVHKVLDRKKAIAEAISDSGPNDIVVVAGKGADPYQKVRGVNTPWPTDMAVVKQVAKSLQEG”: “not soluble”; “MYDMINAKYLGKLIFLDFGQTITSLEETSDNSTFFIADEFGNFGSHYVGVVLEQVRSFNTVVILSYQSFANLRNIGGDNFKSQIINNTSTLIAHRLIDMMEAEEVANLYGVDITCASEIKSLKVGQALVRSISSYYGEIKDWLVQQIDKS”: “soluble”.
The same measure for “MKIKSIRKAVLLLALLTSTSFAAGKNVNVEFRKGHSSAQYSGEIKGYDYDTYTFYAKKGQKVHVSISNEGADTYLFGPGIDDSVDLSRYSPELDSHGQYSLPASGKYELRVLQTRNDARKNKTKKYNVDIQIK”: “soluble”; for “MGSDKIHHHHHHMCRWLAYTGNPIHLETVLFRAKHSLIDQSLHSELGATTTNGDGFGIGWYGDPDELPFRYRSVHPAWNDRNLREAARAIRSRMFVAHIRAATDTPVQETNCHPFRHGRWLFAHNGLIRDFHKLRRDLTMKVDPALFPTLEGSTDSELMFRLALTYGLEQTPLPALERMVGMVEETAARYRVDEPLNMTICATDGDRIIAVRYSSERQSRSLFHTTSFKHLHELYPHNPRIAEAGDDAFMVVSEPLVDLRGAWEEVAESTAIVAQGADVQQRPFNPRHT”: “not soluble”; for “MSLGYNFHLSDMQAQLEQQAAEEETLKQQFSTKAFQAANLEAYKAQMKEMEESFGALLRQLPSDTEVPGLLEDITRTGLGSGLEFEEIKLLPEVAQQFYIELPIQISVVGGYHDLATFVSGVSSLPRIVTLHDFEIKPVAPGSTSKLRMSILAKTYRYNDKGLKKEGHHHHHH”: “soluble”.
The same measure for “MKVAVLGATGKEGQLLLAEAKRRGMDVTAIVRNASKITDGTPTIEKDVYQLTTEDIQAFDVLISALGFPDVQDFPKSTQHLIEILTNQKTRLFVVGGAGTLYVDPEHTTQLKDTPSFPAEIQPLASAMGEALNLLKEAQNIHWTYISPAAMFDADGPATGHYEVAGEELTTNSQGDSYISYADYAVAMLDEVESNAHPNQRISVYQLEHHHHHH”: “soluble”; for “MGSDKIHHHHHHMPNQVSKVNDLKHFFLHLIESGKLSHAYLFLGEDPREIHNLIAAISSRILREKTGDDVFENANLIEVKIPEGKKTLSVDQMRTVRDIFAEKSEHPQIAVIDDADKMTDSAANSILKFIEEPYDRQYIFLQARNRNRVLPTILSRVQLINIPKQKKSEISEQLVDKGIQEDEAIFISRISKSISQADDLLLDGFAINLKRSITEWLDEIFNRQEKSFAFVQSDLLNFVDTNEHQNIFNLALSSELSMRLEKAPNSVLADILDRWLVIYQRSRFTVSWQTMLESFTLEALRMVNGTEKFSNK”: “not soluble”.
For the sequence “MHRCGESSVAGTDARIRLEGNRLFVGGPVTYDNVVEVIRTGDAAIKADDMLIDLAGVTWVDSSAVSMLLEWMRTAQTYDRRIEFINLPSNLADLIELYDVGSLIPTDKPAESV”, the “soluble on expression in E. coli” value is on record as “not soluble”.
Next, “STDNTTSSDLIKNVETARSTIDGLIESLGWIELNYRCERQCNWDEVCYTPSWGPSPMGMTEPGSHNEGFGTHFDESRQRLVINSKLQCININDLMVNRNH”: “soluble”.
